Legend:
langerin = langerin (Homo sapiens, UniProt Q9UJ71); conditions: solid-phase binding studies; cited from earlier work
[1] = system: OTI (CD8+) T cells in unfractionated splenocytes; experiment: Antigen presentation assay (MHC class I), unfractionated OTI splenocytes, [3H]thymidine T cell proliferation; assay type: cell-based, mouse
Description: FIGS. 3A and 3B are graphs showing that nonasaccharide 3-1-promoted presentation via MHC class I pathway for presentation to CD8^+ T cells. […] Unfractionated OTI splenocytes (3×10^5/well) were incubated with graded doses of OVA±(OVA)-3-1 (50 ng mL^−1) or (OVA)-3-1±(BSA)-3-1 (10 μg mL^−1). Incubations were performed for seventy-two hours with [^3H]thymidine (1 μCi) added for the last twelve hours. FIG. 3B is a graph showing that the monosaccharide mannose 3-6 targets a different receptor than 3-1. OTII splenocytes were incubated with graded doses of monosaccharide-modified OVA±(BSA)-3-1 and T cell proliferation was measured as described for FIG. 3A. Values present the mean of triplicate measurements.
Accessing the transporter of antigenic peptides (TAP) and thereby achieving cross-presentation of antigen by dendritic cells to MHC class I restricted CD8+ T cells led to efficient stimulation of these T cells and, in the steady state, their apoptotic deletion from the T cell repertoire^3. To determine if the receptor promoting (OVA)-3-1 uptake can process proteins through the MHC class I pathway, (OVA)-3-1 and OVA were incubated with unfractionated splenocytes isolated from OTI (CD8^+) mice. The T cells from transgenic OTI mice recognized an eight amino acid residue sequence (SIINFEKL (SEQ ID NO: 14)) derived from OVA and were therefore utilized to gauge the efficiency of DC presentation of MHC class I antigenic peptides. A moderate (10-fold) increase in the efficiency of MHC class I presentation with (OVA)-3-1 as compared to OVA alone was observed (FIG. 3A).
Pooled inguinal lymph nodes were dissociated in 10% Fetal Bovine Serum RPMI (supplemented with 2 mM L-glutamine) and either mechanically dissociated between two glass slides or, to improve the overall cell yield, incubated in the presence of collagenase (Boehringer) and EDTA for 25 minutes at 37° C./5% CO2 to dissociate DC-T cell clusters. For antigen presentation assays with whole splenocytes, isolated spleens were injected with collagenase/EDTA, gently teased apart and incubated as described above. […]

purified T cells = experiment: Addition to purified T cells in the absence of antigen-presenting cells; assay type: cell-based, mouse; conditions: no antigen-presenting cells
IFN-γ = IFN-γ ELISA of supernatants from purified dendritic cell/OTII T cell assay; assay type: cell-based, mouse; conditions: average; 72 h supernatants
Description: FIGS. 4A, 4B, 4C and 4D are graphs showing that CD11c^+ dendritic cells are the main antigen presenting cells presenting 3-1-targeted antigen. […] 1.5×10^4 Splenic CD11c^+ dendritic cells purified from C57BL/6 mice and 3.0×10^4 purified OTII T cells were incubated with OVA (starting concentration 300 μg mL^−1) or (OVA)-3-1 (starting concentration 25 μg mL^−1) in graded doses for eight-four hours with [^3H]thymidine (1 μCi) added for the last twelve hours. […] Purified CD11c^+ dendritic cells and OTII T cells were incubated with (OVA)-3-1 (25 μg mL^−1)±each potential inhibitor (100 μg mL^−1). T cell proliferation was determined as for FIG. 4A. […] CD11c^+ dendritic cells and OTII T cells were incubated with OVA or (OVA)-3-1±lipopolysaccharide ([…]). Also included are all ‘non-dendritic cells’ (macrophages and B cells) obtained during the purification of the dendritic cells. T cell proliferation was determined as described in FIG. 4A. […] Supernatants from cells described in FIG. 4C were collected at forty-eight and seventy-two hours and measured for IFN-γ by ELISA; the values presented are from the seventy-two hour time point. […]
75-150 μL aliquots of supernatant were sampled from antigen presentation assays at 24, 48, and 72 hours. […] 25 μL of each supernatant were diluted 1:1 with PBS/1% BSA and analyzed in triplicate for IFN-γ, IL-10, and IL-4 using DuoSet ELISA reagents from R&D Systems. […]

langerin, sequence (Q9UJ71 whole entry, species assumed): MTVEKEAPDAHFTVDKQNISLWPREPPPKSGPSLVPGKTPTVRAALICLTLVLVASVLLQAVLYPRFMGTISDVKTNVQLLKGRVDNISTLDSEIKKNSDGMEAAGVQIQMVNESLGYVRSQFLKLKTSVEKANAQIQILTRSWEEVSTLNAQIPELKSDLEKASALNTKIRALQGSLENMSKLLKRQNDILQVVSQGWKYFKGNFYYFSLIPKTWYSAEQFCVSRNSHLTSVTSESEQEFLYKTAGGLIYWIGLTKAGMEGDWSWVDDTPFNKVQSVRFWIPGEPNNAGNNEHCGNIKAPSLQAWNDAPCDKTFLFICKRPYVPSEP

Molecule: mBSA: BSA modified with approximately 25 mannose residues per protein molecule [reference compound]
- binding by langerin (langerin): bound by langerin

B1: (OVA)-3-1: ovalbumin modified via SMCC with nonasaccharide 3-1, average of three saccharides per OVA (conjugate)
chain: GSIGAASMEFCFDVFKELKVHHANENIFYCPIAIMSALAMVYLGAKDSTRTQINKVVRFDKLPGFGDSIEAQCGTSVNVHSSLRDILNQITKPNDVYSFSLASRLYAEERYPILPEYLQCVKELYRGGLEPINFQTAADQARELINSWVESQTNGIIRNVLQPSSVDSQTAMVLVNAIVFKGLWEKAFKDEDTQAMPFRVTEQESKPVQMMYQIGLFRVASMASEKMKILELPFASGTMSMLVLLPDEVSGLEQLESIINFEKLTEWTSSNVMEERKIKVYLPRMKMEEKYNLTSVLMAMGITDVFSSSANLSGISSAESLKISQAVHAAHAEINEAGREVVGSAEAGVDAASVSEEFRADHPFLFCIKHIATNAVLFFGRCVSP
- direct activation of OTI T cells ([1]; (OVA)-3-1 50 ng mL^−1 added to OVA): did not achieve this enhancement via direct activation of T cells
- increase in the efficiency of MHC class I presentation as compared to OVA alone ([1]; OTI splenocytes): 10 fold
- presentation of antigenic peptides to CD8+ T cells ([1]; OTI splenocytes, graded doses): enhanced presentation
- T cell proliferation (purified T cells): did not led to T cell proliferation

B2: ovalbumin (protein, UniProt P01012 2-386, looked up)
Ovalbumin: B1 chain
notes: model antigen, unmodified
- less IFN-γ produced by T cells responding to OVA than to (OVA)-3-1 (IFN-γ): 40%

Source: US8273357B2, “Antigen-carbohydrate conjugates” (Massachusetts Institute of Technology, priority 2004, dated 2012)
